Kd data for five molecules are collected here from patent EP1659133.

Experiment [1] has as its target RSV F protein (C-terminal truncated) (respiratory syncytial virus, UniProt P03420). The experiment can be described thus: SPR. In general terms: SPR reads the build-up and loss of mass on a sensor chip optically.
The target of experiment [2] is T1, RSV F protein from infected HEp2 cell lysate (respiratory syncytial virus, UniProt P03420). Put plainly: ELISA, apparent. (An ELISA detects its analyte on a solid surface through an enzyme-linked reagent.)
T1 sequence (P03420 26-524): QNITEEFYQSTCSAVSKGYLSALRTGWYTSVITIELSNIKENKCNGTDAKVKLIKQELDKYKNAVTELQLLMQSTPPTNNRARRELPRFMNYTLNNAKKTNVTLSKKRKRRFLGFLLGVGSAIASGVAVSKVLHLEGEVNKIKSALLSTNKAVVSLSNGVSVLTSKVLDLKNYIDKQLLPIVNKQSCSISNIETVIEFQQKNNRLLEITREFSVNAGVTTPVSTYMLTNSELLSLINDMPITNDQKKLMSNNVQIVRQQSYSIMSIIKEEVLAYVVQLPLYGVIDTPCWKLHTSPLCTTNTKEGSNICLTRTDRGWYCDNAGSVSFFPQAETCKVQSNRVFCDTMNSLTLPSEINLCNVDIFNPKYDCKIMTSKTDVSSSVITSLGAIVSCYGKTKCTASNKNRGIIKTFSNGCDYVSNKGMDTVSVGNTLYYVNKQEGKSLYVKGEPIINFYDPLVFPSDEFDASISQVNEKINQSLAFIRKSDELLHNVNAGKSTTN
The target of experiment [3] is T1, RSV F protein from infected HEp2 cell …. The experiment can be described thus: ELISA, apparent (unit printed as 10mm).

RSV F protein (C-terminal truncated), sequence (P03420 26-524): as above

B1: M1308F (antibody, V domains shown)
VH: EVQLQQSGAELVRPGALVKLSCKASGFNIKDYYIYWVKQRPEQGLEWIGWIDPENGNTVFDPKFQGKASITSDTSSNTAYLQLSSLTSEDTAVYYCAYYGTSSFDFWGQGTTLTVSS
VL: DIKMTQSPSSMYVSLGERVTITCKASQDINRYLNWFQQKPGKSPKTLIHRANRLVDGVPSRFSGSGSGQEYSLTISSLEFEDMGIYYCLQFHEFPYTFGGGTKLEIK
As to B1, in experiment [1], the Kd came out at 1.1 nM.

B2: H1308F (antibody, V domains shown)
VH: QVQLVQSGAEVKKPGASVKVSCKASGFNIKDYYIYWVRQAPGQGLEWIGWIDPENGNTVFDPKFQGRVTMTRDTSTSTVYMELSSLRSEDTAVYYCAYYGTSSFDFWGQGTTLTVSS
VL: DIQMTQSPSTLSASVGDRVTITCKASQDINRYLNWYQQKPGKAPKLLIYRANRLVDGVPSRFSGSGSGTEFTLTISSLQPDDFATYYCLQFHEFPYTFGGGTKLEIK
In experiment [1], B2 displayed a Kd of 2.5 nM.

B3: H1129 (humanized 1129) (antibody, V domains shown)
VH: QVTLRESGPALVKPSQTLTLTCSFSGFSLSTSGMSVGWIRQPSGKALEWLADIWWDDKKDYNPSLKSRLTISKDTSKNQVVLKVTNVDPADTATYYCARSMITNWYFDVWGAGTTVTVSS
VL: DIQMTQSPSTLSASVGDRVTITCKCQLSVGYMHWYQQKPGKAPKLWIYDTSKLASGVPSRFSGSGSGTEFTLTISSLQPDDFATYYCFQGSGYPFTFGGGTKLEIK
As for B3, the Kd worked out at 1.4 nM in experiment [1] and 0.7 nM in experiment [2].

B4: CH1129 (M1129HuGamma1,Kappa) (antibody, V domains shown)
VH: QVELQESGPGILQPSQTLSLTCSFSGFSLSTSGMSVGWIRQPSGEGLEWLADIWWDDKKDYNPSLKSRLTISKDTSSNQVFLKITGVDTADTATYYCARSMITNWYFDVWGAGTTVTVSS
VL: DIQLTQSPAIMSASPGEKVTMTCSASSSVGYMHWYQQKSSTSPKLWIYDTSKLASGVPGRFSGSGSGNSYSLTISSIQAEDVATYYCFQGSGYPFTFGGGTKLEIK
Turning to B4, the Kd in experiment [1] amounted to 1.5 nM; in experiment [3], 10 nM.

B5: M1129 (antibody, V domains shown)
VH: B4 VH
VL: B4 VL
In turn, B5 showed a Kd in experiment [1] of 11.4 nM.
